# Target: the molecule itself
# Test: crystal structure
protein,measurement,value
"Water soluble chlorophyll binding protein from cauliflower (CaWSCP), recombinant, assembled with Chl a (natural protein) REQVKDSNGNPVKRGAKYFIQPAKSNGGGLVPAAINILPFCPLGITQTLLPYQPGLPVSFGYEPVIVGTDYIYTSTTINIEFRSEIWPVCNELSKLWAVDVSSSAAKEPAIIIGGERTAPNSLFKIEEATGAHTYKLTTSSGTVGTIPGPWLGAPQLIATNDDAKTLFVKFVKVDDDAT",stoichiometry N,4

# Source: paper PMC6690836 (Angewandte Chemie (International ed. in English), 2016)
